Measured values as given in article PMC4499870.
Blank lines part the entries; values can stand above or below the substance they belong to.

Columns and labels:
[1] = target: CytERM-EBFP2 (Aequorea victoria)
[2] = target: CytERM-moxBFP (Aequorea victoria)

% cells with OSER structures (CytERM assay, n=138 cells) [1]: 63.7%
Substance: CytERM-EBFP2

% cells with OSER structures (CytERM assay, n=69 cells) (CytERM-mTagBFP): 43.5%
Substance: CytERM-mTagBFP

% cells with OSER structures (CytERM assay, n=109 cells) [2]: 0.9%
Substance: CytERM-moxBFP
